# Data reported in the Immune Epitope Database (IEDB).
# Tests used:
# [1] = biological target: HLA-B*07:02; experiment: IEDB peptide-MHC binding, purified MHC/direct/fluorescence; filed as Kd, often an IC50 or EC50 that approximates it; ≥ and ≤ were set here for values at or beyond the usual limits of such assays
# [2] = biological target: HLA-B*07:02; experiment: IEDB peptide-MHC binding, purified MHC/competitive/fluorescence; filed as Kd, often an IC50 or EC50 that approximates it; ≥ and ≤ were set here for values at or beyond the usual limits of such assays; conditions: source organism: Francisella tularensis subsp. tularensis SCHU S4
# [3] = biological target: HLA-A*24:02; experiment: IEDB peptide-MHC binding, purified MHC/direct/fluorescence; filed as Kd, often an IC50 or EC50 that approximates it; ≥ and ≤ were set here for values at or beyond the usual limits of such assays; conditions: source organism: Francisella tularensis subsp. tularensis SCHU S4
# [4] = biological target: HLA-A*02:01; experiment: as above
# [5] = source organism: Francisella tularensis subsp. tularensis SCHU S4
# [6] = source organism: Francisella tularensis
Sequence,Kd [3],"Kd [4, 5]",further results
APAFVVIADL,–,–,"Kd [1, 5]: 114 nM"
APAWFQASA,–,–,Kd [2]: ≥ 5000 nM
APFANTYSAL,–,–,"Kd [1, 6]: 22 nM"
APYPNVVEM,–,–,"Kd [1, 5]: 127 nM"
AYVKNGYFEI,76 nM,–,–
FLMPFMHYIV,–,≤ 1 nM,–
FLSNVGHYV,–,≤ 1 nM,–
FLSPNQVTNV,–,≤ 1 nM,–
FPATGQNIYM,–,–,"Kd [1, 5]: 588 nM"
FPICSTYKFL,–,–,"Kd [1, 5]: 226 nM"
FPICSVFKFL,–,–,"Kd [1, 5]: 251 nM"
FPINLNSSQL,–,–,"Kd [1, 5]: 62 nM"
FPKAFINIV,–,–,"Kd [1, 5]: 151 nM"
FPNINFSPEV,–,–,Kd [2]: ≥ 5000 nM
FPQANLTGGI,–,–,Kd [2]: 2140 nM
GIDGNVTFTV,–,≤ 1 nM,–
GLNLVVSSSV,–,20 nM,–
GTDGFPFKL,–,24 nM,–
IFWQFHQLL,10 nM,–,–
ILDPKTGLV,–,15 nM,–
ILLPWFVDL,–,≤ 1 nM,–

Sequence,Kd [3],"Kd [4, 5]",further results
IMSSFEFQV,–,≤ 1 nM,–
IPMTLTASPL,–,–,"Kd [1, 5]: 4 nM"
IPRTMLPLSL,–,–,"Kd [1, 5]: 3 nM"
IYNNYDVLF,23 nM,–,–
IYSDKGLLF,4 nM,–,–
KIDSTSFSV,–,≤ 1 nM,–
KLAKKVLSRV,–,10 nM,–
KLGGYVSFV,–,≤ 1 nM,–
KLLGQINLV,–,≤ 1 nM,–
KLLPEGYWV,–,≤ 1 nM,–
KLWGLVDFV,–,≤ 1 nM,–
KYWNNHRQGI,435 nM,–,–
LMWDNVGLV,–,≤ 1 nM,–
LPRYNIATSV,–,–,"Kd [1, 5]: 3 nM"
LYQPLLDLL,30 nM,–,–
LYSENGHFSW,18 nM,–,–
MPVSRQISRM,–,–,"Kd [1, 5]: 665 nM"
NLDTSPFFV,–,≤ 1 nM,–
NYNNLDDKF,3 nM,–,–
NYQKWTAPL,5 nM,–,–
NYVDSAQLAF,9 nM,–,–

Sequence,Kd [3],"Kd [4, 5]",further results
PYLKQGIEF,8 nM,–,–
PYLKSFLSF,20 nM,–,–
QLVGRVFAGL,–,–,"Kd [4, 6]: 2 nM"
QLWPEEIGV,–,≤ 1 nM,–
RLIGHISTL,–,≤ 1 nM,–
RYTDSEYFVI,15 nM,–,–
SPMEHSKRI,–,–,"Kd [1, 5]: 62 nM"
SPMGPLAVSF,–,–,"Kd [1, 5]: 18 nM"
SPQANNLYL,–,–,"Kd [1, 5]: 74 nM"
SYDRWGIPI,33 nM,–,–
SYSYLVYLI,3 nM,–,–
SYTFTQTFF,24 nM,–,–
TPNGNIPTL,–,–,"Kd [1, 5]: 46 nM"
TYPNSQQQTL,180 nM,–,–
TYTSTLHPRL,200 nM,–,–
VLPGVVVPIV,–,15 nM,–
VPRKPLLSYI,–,–,"Kd [1, 5]: 38 nM"
WLGETFHGL,–,≤ 1 nM,–
WLGNHGFEV,–,≤ 1 nM,–
WYTNLDTDKF,255 nM,–,–
YYLDRGYLDF,10 nM,–,–
